± gives the standard error. Variants at the floor of the assay were thinned out.

Consider 30 variants from the supplement of paper PMC7125110.

The chains are these.
B1: glmS ribozyme (parent)
chain: AUAAAAGCGCCAGAACUACAGAAAUGUAGUUGACGAGGAGGAGGUUUAUCGAAUUUUCGGCGGAUGCCUCCAAA

Details in all cases: with glucosamine-6-phosphate
The variants in data set [1] derive from B1. Description: self-cleavage kobs at 160 uM GlcN6P; higher = faster cleavage; RNA array. The essentials:
(§1)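 kobs was derived by fitting per-tile medians to one- or two-exponential decays after normalising signals to baseline and to non-cleaving reference variants. Those signals came from barcoded ribozyme variants transcribed in situ by E. coli RNA polymerase on sequenced MiSeq chips, followed through a hybridised Cy3 probe at 37 °C and imaged over ~14 h. Glucosamine-6-phosphate (40 μM to 10 mM) in HEPES/KCl/Mg(OAc)2 buffer was flowed in. Weighted Michaelis–Menten fits across concentrations then gave kcat and KM.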

The variants in data set [2] derive from B1. Description: self-cleavage kobs at 640 uM GlcN6P; higher = faster cleavage; RNA array. In short, it runs like this:
as §1

Variants of B1 are the subject of data set [3]. Nature of the data set: self-cleavage kobs at 2500 uM GlcN6P; higher = faster cleavage; RNA array. The essentials: as §1
Data set [4] covers variants of B1. Description: self-cleavage kobs at 10000 uM GlcN6P; higher = faster cleavage; RNA array. The essentials:
as §1

For G13A A64C, the “self-cleavage kobs at 160 uM GlcN6P” value in data set [1] was less than 1e-05 s⁻¹. In addition, the “self-cleavage kobs at 640 uM GlcN6P” value in data set [2] is less than 1e-05 s⁻¹. Further, the “self-cleavage kobs at 2500 uM GlcN6P” value in data set [3] is less than 1e-05 s⁻¹. Also, the “self-cleavage kobs at 10000 uM GlcN6P” value in data set [4] was less than 1e-05 s⁻¹.

As for A14C U30G G41C A53G, in data set [1], the “self-cleavage kobs at 160 uM GlcN6P” value is less than 1e-05 s⁻¹. The “self-cleavage kobs at 2500 uM GlcN6P” value in data set [3] was less than 1e-05 s⁻¹.

With A6U G37C C71U, the “self-cleavage kobs at 160 uM GlcN6P” value in data set [1] was less than 1e-05 s⁻¹.

In the case of G9C U30G U45A, the “self-cleavage kobs at 160 uM GlcN6P” value in data set [1] is less than 1e-05 s⁻¹.

For U54A G59A C71A, the “self-cleavage kobs at 160 uM GlcN6P” value in data set [1] was less than 1e-05 s⁻¹. The “self-cleavage kobs at 640 uM GlcN6P” value in data set [2] was less than 1e-05 s⁻¹.

For A36G A42U U56C, the “self-cleavage kobs at 160 uM GlcN6P” value in data set [1] was less than 1e-05 s⁻¹. Besides, the “self-cleavage kobs at 640 uM GlcN6P” value in data set [2] is less than 1e-05 s⁻¹. For the same variant, the “self-cleavage kobs at 2500 uM GlcN6P” value in data set [3] is less than 1e-05 s⁻¹.

As to C8A G13C U30C G41U, in data set [1], the “self-cleavage kobs at 160 uM GlcN6P” value is less than 1e-05 s⁻¹. In data set [3], the “self-cleavage kobs at 2500 uM GlcN6P” value was less than 1e-05 s⁻¹. The “self-cleavage kobs at 10000 uM GlcN6P” value in data set [4] is less than 1e-05 s⁻¹.

Consider A15C C61U A64U, for which the “self-cleavage kobs at 160 uM GlcN6P” value in data set [1] is less than 1e-05 s⁻¹.

Regarding C34A G37U A48G, in data set [1], the “self-cleavage kobs at 160 uM GlcN6P” value was less than 1e-05 s⁻¹.

For G13U G29A A52C, in data set [1], the “self-cleavage kobs at 160 uM GlcN6P” value is less than 1e-05 s⁻¹. Also, in data set [2], the “self-cleavage kobs at 640 uM GlcN6P” value is less than 1e-05 s⁻¹. Further, in data set [3], the “self-cleavage kobs at 2500 uM GlcN6P” value is less than 1e-05 s⁻¹.

On to G37A G38U U65C, for which the “self-cleavage kobs at 160 uM GlcN6P” value in data set [1] is less than 1e-05 s⁻¹. Moreover, the “self-cleavage kobs at 10000 uM GlcN6P” value in data set [4] is less than 1e-05 s⁻¹.

On to A15C G35U C70U, for which, in data set [1], the “self-cleavage kobs at 160 uM GlcN6P” value was less than 1e-05 s⁻¹.

On to G38A G41A U45C A52G, for which the “self-cleavage kobs at 160 uM GlcN6P” value in data set [1] is less than 1e-05 s⁻¹. The “self-cleavage kobs at 640 uM GlcN6P” value in data set [2] is less than 1e-05 s⁻¹.

Take U31G G44U G51U: the “self-cleavage kobs at 160 uM GlcN6P” value in data set [1] was less than 1e-05 s⁻¹.

For the variant C61G A64U U65A C68U, the “self-cleavage kobs at 160 uM GlcN6P” value in data set [1] is less than 1e-05 s⁻¹. Moreover, in data set [2], the “self-cleavage kobs at 640 uM GlcN6P” value is less than 1e-05 s⁻¹.

Turning to U30G G37U, the “self-cleavage kobs at 160 uM GlcN6P” value in data set [1] was less than 1e-05 s⁻¹. Further, in data set [2], the “self-cleavage kobs at 640 uM GlcN6P” value is less than 1e-05 s⁻¹. Also, the “self-cleavage kobs at 10000 uM GlcN6P” value in data set [4] was less than 1e-05 s⁻¹.

For C8G A39U U69A, the “self-cleavage kobs at 160 uM GlcN6P” value in data set [1] was less than 1e-05 s⁻¹.

U46G U49A C50A A64G: the “self-cleavage kobs at 160 uM GlcN6P” value in data set [1] was less than 1e-05 s⁻¹. Besides, the “self-cleavage kobs at 640 uM GlcN6P” value in data set [2] was less than 1e-05 s⁻¹.

Consider G13U C34A G40U C58A, for which the “self-cleavage kobs at 160 uM GlcN6P” value in data set [1] is less than 1e-05 s⁻¹. In addition, in data set [2], the “self-cleavage kobs at 640 uM GlcN6P” value is less than 1e-05 s⁻¹.

With A6U C11A G13U, the “self-cleavage kobs at 160 uM GlcN6P” value in data set [1] is less than 1e-05 s⁻¹.

As to G44U C61A, in data set [1], the “self-cleavage kobs at 160 uM GlcN6P” value is less than 1e-05 s⁻¹. In data set [2], the “self-cleavage kobs at 640 uM GlcN6P” value was less than 1e-05 s⁻¹. Besides, the “self-cleavage kobs at 2500 uM GlcN6P” value in data set [3] was less than 1e-05 s⁻¹. Besides, the “self-cleavage kobs at 10000 uM GlcN6P” value in data set [4] is less than 1e-05 s⁻¹.

In the case of A6G C16U A39C, the “self-cleavage kobs at 160 uM GlcN6P” value in data set [1] is less than 1e-05 s⁻¹. In data set [4], the “self-cleavage kobs at 10000 uM GlcN6P” value worked out at 6.06e-05 ± 9e-06 s⁻¹.

In the case of C10G G32U U69G, the “self-cleavage kobs at 160 uM GlcN6P” value in data set [1] is less than 1e-05 s⁻¹.

Take G13C C58G: in data set [1], the “self-cleavage kobs at 160 uM GlcN6P” value was less than 1e-05 s⁻¹.

As to A15C A39U U47A U54G, in data set [1], the “self-cleavage kobs at 160 uM GlcN6P” value was determined as 4.07e-05 ± 1.7e-05 s⁻¹. In addition, the “self-cleavage kobs at 640 uM GlcN6P” value in data set [2] is 0.000184 ± 4.1e-05 s⁻¹. Further, the “self-cleavage kobs at 2500 uM GlcN6P” value in data set [3] is 0.000635 ± 8.5e-05 s⁻¹.

In the case of G38U A52U, in data set [1], the “self-cleavage kobs at 160 uM GlcN6P” value was less than 1e-05 s⁻¹. The “self-cleavage kobs at 640 uM GlcN6P” value in data set [2] was less than 1e-05 s⁻¹. The “self-cleavage kobs at 10000 uM GlcN6P” value in data set [4] is less than 1e-05 s⁻¹.

For the variant G38C G41U G63C, the “self-cleavage kobs at 160 uM GlcN6P” value in data set [1] was less than 1e-05 s⁻¹. The “self-cleavage kobs at 2500 uM GlcN6P” value in data set [3] is less than 1e-05 s⁻¹.

In the case of G9A C50U G51U A52U, the “self-cleavage kobs at 160 uM GlcN6P” value in data set [1] was less than 1e-05 s⁻¹.

With A12U U56G U57G C58A A64G, in data set [1], the “self-cleavage kobs at 160 uM GlcN6P” value amounted to 5.96e-05 ± 2.1e-05 s⁻¹. Also, in data set [2], the “self-cleavage kobs at 640 uM GlcN6P” value came to 0.000137 ± 2.4e-05 s⁻¹. The “self-cleavage kobs at 2500 uM GlcN6P” value in data set [3] came out at 5.56e-05 ± 2.7e-05 s⁻¹.

With G43C U56A, the “self-cleavage kobs at 160 uM GlcN6P” value in data set [1] was less than 1e-05 s⁻¹. For the same variant, in data set [2], the “self-cleavage kobs at 640 uM GlcN6P” value was less than 1e-05 s⁻¹. For the same variant, the “self-cleavage kobs at 2500 uM GlcN6P” value in data set [3] was less than 1e-05 s⁻¹. Further, in data set [4], the “self-cleavage kobs at 10000 uM GlcN6P” value is less than 1e-05 s⁻¹.
